From patent publication US20080234193A1 (published 2008) come the findings set out here.

Data set [1] has as its target native rFVIII MOQ HEPES 01-E (Advate rAHF-PFM bulk drug substance) (UniProt P00451). Put plainly: ELISA chromogenic assay (ECA): VWF-rFVIII complex captured on anti-VWF antibody, bound FVIII by chromogenic assay.
Data set [2] shares this target. Put plainly: ECA, value as percent of VWF:Ag.
The target is the same in data set [3]. Put plainly: ECA, value related to the rVWF protein.
The target is the same in data set [4]. As to the kind of experiment: ECA after in vitro incubation in Hepes buffer pH ~7.5 at ambient temperature, day 8.
For data set [5] the target is unchanged. As to the kind of experiment: ELISA chromogenic assay (ECA); mean of 133P1-1 to 133P1-3. A general note: In an ELISA, binding on a coated surface is turned into a signal by an enzyme label.
The target is the same in data set [6]. As to the kind of experiment: SPR (Biacore 3000): rVWF sample immobilized on CM5 chip, rFVIII in flow, 1:1 Langmuir model. In general terms: SPR reads the build-up and loss of mass on a sensor chip optically.
Data set [7] shares this target. Put plainly: ECA after in vitro incubation in Hepes buffer pH ~7.5 at ambient temperature, day 0.
For data set [8] the target is unchanged. As to the kind of experiment: SPR (Biacore 3000): rVWF sample immobilized on CM5 chip, rFVIII in flow, 1:1 Langmuir model; mean of 133P1-1 and 133P1-2.
Data set [9] shares this target. As to the kind of experiment: SPR (Biacore 3000): rVWF sample immobilized on CM5 chip, rFVIII in flow, 1:1 Langmuir model. The source holds these as a separate data set.
For data set [10] the target is unchanged. As to the kind of experiment: ELISA chromogenic assay (ECA): VWF-rFVIII complex captured on anti-VWF antibody, bound FVIII by chromogenic assay. The source holds these as a separate data set.
For data set [11] the target is unchanged. As to the kind of experiment: ECA after in vitro incubation in Hepes buffer pH ~7.5 at ambient temperature, day 5.
For data set [12] the target is unchanged. Put plainly: ECA after in vitro incubation in Hepes buffer pH ~7.5 at ambient temperature, day 2.
Data set [13] has the same target. Put plainly: ELISA chromogenic assay (ECA): VWF-rFVIII complex captured on anti-VWF antibody, bound FVIII by chromogenic assay; percent of VWF:Ag.
The target is the same in data set [14]. Put plainly: SPR competition (Biacore): VWF-rFVIII complex (5 IU/ml rFVIII) in flow over immobilized unmodified rVWF (competitor).
Data set [15] addresses native rVWF 133P1 (human) (UniProt P04275). Put plainly: SPR (Biacore 3000): native rVWF 133P1 immobilized on CM5 chip, FVIII sample in flow, 1:1 Langmuir model.
For data set [16], the target named is activated factor IX (FIXa). Put plainly: cell-based or functional assay.
The target in data set [17] is PEG-rFVIII Lys 60K br short (UniProt P00451).
PEG-rFVIII Lys 60K br short, sequence (P00451 whole entry, looked up): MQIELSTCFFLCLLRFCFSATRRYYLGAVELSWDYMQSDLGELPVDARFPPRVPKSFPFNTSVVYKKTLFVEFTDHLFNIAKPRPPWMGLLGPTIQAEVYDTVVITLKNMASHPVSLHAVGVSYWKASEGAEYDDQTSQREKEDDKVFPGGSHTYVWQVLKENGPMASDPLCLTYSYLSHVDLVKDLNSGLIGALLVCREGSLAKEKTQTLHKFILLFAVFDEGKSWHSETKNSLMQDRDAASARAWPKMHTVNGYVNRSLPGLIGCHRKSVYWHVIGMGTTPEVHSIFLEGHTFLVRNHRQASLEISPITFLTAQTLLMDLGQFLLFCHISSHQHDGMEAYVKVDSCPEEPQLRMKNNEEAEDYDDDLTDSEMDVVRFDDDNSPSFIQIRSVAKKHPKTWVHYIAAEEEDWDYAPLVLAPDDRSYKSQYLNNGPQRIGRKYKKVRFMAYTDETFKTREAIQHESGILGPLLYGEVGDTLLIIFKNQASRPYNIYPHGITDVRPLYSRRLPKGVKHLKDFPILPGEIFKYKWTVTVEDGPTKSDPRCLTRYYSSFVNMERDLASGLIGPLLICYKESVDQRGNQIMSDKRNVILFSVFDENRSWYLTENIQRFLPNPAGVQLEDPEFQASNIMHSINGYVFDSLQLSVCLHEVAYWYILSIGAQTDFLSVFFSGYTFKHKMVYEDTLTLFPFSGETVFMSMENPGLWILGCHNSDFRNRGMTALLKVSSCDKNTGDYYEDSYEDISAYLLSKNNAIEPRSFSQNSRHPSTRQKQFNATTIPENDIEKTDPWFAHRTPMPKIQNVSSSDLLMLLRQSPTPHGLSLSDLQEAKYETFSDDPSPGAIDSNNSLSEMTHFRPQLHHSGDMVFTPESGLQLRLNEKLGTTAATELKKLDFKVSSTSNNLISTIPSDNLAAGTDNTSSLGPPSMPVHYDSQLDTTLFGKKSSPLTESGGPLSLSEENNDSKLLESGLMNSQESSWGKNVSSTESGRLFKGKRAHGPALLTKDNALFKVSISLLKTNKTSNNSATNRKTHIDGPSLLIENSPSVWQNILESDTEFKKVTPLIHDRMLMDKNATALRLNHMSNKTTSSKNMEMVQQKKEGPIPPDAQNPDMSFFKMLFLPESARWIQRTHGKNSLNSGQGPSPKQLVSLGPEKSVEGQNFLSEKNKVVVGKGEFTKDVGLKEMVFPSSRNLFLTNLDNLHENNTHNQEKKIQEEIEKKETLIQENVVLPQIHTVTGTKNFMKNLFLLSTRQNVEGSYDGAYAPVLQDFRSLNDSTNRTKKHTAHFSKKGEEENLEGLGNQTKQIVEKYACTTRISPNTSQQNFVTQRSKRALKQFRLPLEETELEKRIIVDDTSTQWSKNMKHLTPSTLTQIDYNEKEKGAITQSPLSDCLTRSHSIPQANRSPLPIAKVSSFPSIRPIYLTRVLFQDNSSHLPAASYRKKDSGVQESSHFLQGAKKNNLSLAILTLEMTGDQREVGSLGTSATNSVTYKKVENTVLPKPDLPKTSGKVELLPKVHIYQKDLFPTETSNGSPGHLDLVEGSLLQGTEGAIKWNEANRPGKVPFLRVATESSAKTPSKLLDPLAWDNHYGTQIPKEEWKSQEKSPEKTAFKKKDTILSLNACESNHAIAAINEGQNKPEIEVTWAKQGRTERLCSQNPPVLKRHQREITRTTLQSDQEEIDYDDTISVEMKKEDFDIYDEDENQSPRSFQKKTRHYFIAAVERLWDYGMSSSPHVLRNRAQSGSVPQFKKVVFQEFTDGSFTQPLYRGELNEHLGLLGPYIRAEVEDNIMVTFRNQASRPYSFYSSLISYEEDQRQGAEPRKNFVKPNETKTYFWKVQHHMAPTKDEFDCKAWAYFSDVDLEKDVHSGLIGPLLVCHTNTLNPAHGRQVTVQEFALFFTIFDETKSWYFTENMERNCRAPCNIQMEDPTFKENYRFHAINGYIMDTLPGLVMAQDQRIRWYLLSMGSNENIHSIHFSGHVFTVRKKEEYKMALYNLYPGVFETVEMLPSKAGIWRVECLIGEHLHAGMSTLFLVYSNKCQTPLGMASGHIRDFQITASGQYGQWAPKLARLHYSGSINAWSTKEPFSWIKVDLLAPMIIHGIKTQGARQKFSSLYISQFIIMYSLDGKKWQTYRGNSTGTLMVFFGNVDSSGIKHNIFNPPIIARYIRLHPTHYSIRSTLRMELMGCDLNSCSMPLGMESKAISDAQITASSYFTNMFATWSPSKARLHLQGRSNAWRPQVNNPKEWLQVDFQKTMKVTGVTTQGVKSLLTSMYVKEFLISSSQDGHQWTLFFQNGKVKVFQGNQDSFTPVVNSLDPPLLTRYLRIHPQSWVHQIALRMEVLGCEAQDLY
Data set [18] has as its target PEG-rFVIII Lys 60K br long (UniProt P00451).
The target in data set [19] is PEG-rFVIII Lys 20K br short (UniProt P00451).
PEG-rFVIII Lys 20K br short, sequence (P00451 whole entry, looked up): as above
Data set [20] has as its target PEG-rFVIII Lys 20K br long (UniProt P00451).
Data set [21] has as its target native rFVIII MOQ HEPES 01-E (Advate rAHF-PFM bulk drug substance) (UniProt P00451).
Data set [22] concerns the target PEG-rFVIII Lys 40K br short (UniProt P00451).
Data set [23] has as its target PEG-rFVIII Lys 40K br long (UniProt P00451).
The target of data set [24] is FVIII control (mock preparation, not PEGylated) (UniProt P00451).
FVIII control (mock preparation, not PEGylated), sequence (P00451 whole entry, looked up): as above
In data set [25] the target is PEG-rVWF Lys 20K br short low, P04275.
For data set [26], the target named is PEG-rVWF Lys 40K br short low, P04275.
Data set [27] deals with native rVWF 133P1, P04275.
Data set [28] addresses PEG-rVWF Lys 40K br long low, P04275.
Data set [29] deals with PEG-rVWF Lys 20K br long low, P04275.

“And” between values parts separate entries of the source, which are not always exact repeats. Identical values can stand only once.

PEG-rFVIII Lys 40K br long, sequence (P00451 whole entry, looked up): as above
PEG-rFVIII Lys 60K br long, sequence (P00451 whole entry, looked up): as above
PEG-rFVIII Lys 40K br short, sequence (P00451 whole entry, looked up): as above
PEG-rFVIII Lys 20K br long, sequence (P00451 whole entry, looked up): as above
native rFVIII MOQ HEPES 01-E (Advate rAHF-PFM bulk drug substance), sequence (P00451 whole entry, looked up): as above

As for “rVWF control (mock preparation, not PEGylated) (from UniProt P04275 764-2813)”, the VWF:FVIIIB (U/ml) in data set [1] was found to be 15.5 U/ml. Further, in data set [2], the VWF:FVIIIB capacity (%) amounted to 84%. In data set [3], this molecule registered a VWF:FVIIIB (U/mg) of 95 U/mg.
What is called Kd is a measure of binding affinity in units of concentration. High values mean lower affinity, low ones higher affinity. In the case of “native rVWF 133P1 (from UniProt P04275 764-2813)”, the VWF:FVIIIB specific activity (U/mg protein) was 84 U/mg protein in data set [4], 81 U/mg protein in [7], 93 U/mg protein in data set [11] and 66 U/mg protein in data set [12]. For the same molecule, the VWF:FVIIIB (U/ml) in [5] is 41.2 U/ml; in [1] it was 47.9 U/ml and 37.9 U/ml and 37.8 U/ml; in data set [10] it was 46 U/ml. The Kd in [6] was 549 pM; in [8] it was 390 pM; in data set [9], 290 pM and 550 pM and 480 pM. For the same molecule, the VWF:FVIIIB (U/mg) in data set [3] was 134 U/mg. The same molecule showed a VWF:FVIIIB capacity (%) in [13] of 84%. Also, the VWF to FVIII ratio to keep all FVIII in a complex in data set [14] amounted to 1 µg/IU.
For the molecule “native rFVIII MOQ HEPES 01-E (Advate rAHF-PFM bulk drug substance) (from UniProt P00451 20-2351)”, the Kd in [15] worked out at 1500 pM. For the same molecule, in data set [16], the lag phase (min), FIXa-cofactor activity after thrombin activation amounted to 1.15 min; the lag phase (min), FIXa-cofactor activity without thrombin activation came to 2.4 min; the maximum FXa (nM), FIXa-cofactor activity after thrombin activation was found to be 25.1 nM; the maximum FXa (nM), FIXa-cofactor activity without thrombin activation was 30.1 nM. In addition, in data set [16], the maximum rate (nM FXa/min), FIXa-cofactor activity after thrombin activation was determined as 4.24 nM FXa/min; the maximum rate (nM FXa/min), FIXa-cofactor activity without thrombin activation came out at 6.7 nM FXa/min; the t1/2 of maximum (min), FIXa-cofactor activity after thrombin activation was 4.24 min; the t1/2 of maximum (min), FIXa-cofactor activity without thrombin activation came to 4.6 min.
As for activated protein C (APC), the Relative k' of APC-mediated inactivation (non-activated FVIII) relative to native rFVIII amounted to 0.52 in data set [17]; 0.38 in data set [18]; 0.46 in data set [19]; 0.56 in data set [20]; 0.44 in data set [22]; 0.35 in [23]. In addition, the Relative k' of APC-mediated inactivation of thrombin-activated FVIII relative to native rFVIIIa in data set [17] turned out to be 0.54; in data set [18], 0.64; in [19], 0.5; in [20], 0.5; in data set [22] it was 0.55; in data set [23], 0.54. In addition, the “first order rate of inactivation k', non-activated rFVIII, 0.05 U/ml APC” value in data set [21] was “a first order rate inactivation was observed, with a k' of 0.220*min^-1”.
As for thrombin, the Relative k' (first order inactivation rate relative to native rFVIII), 0.5 nM thrombin, FIXa-cofactor assay in data set [17] was 0.46; in data set [18], 0.51; in data set [19], 0.35; in data set [20] it was 0.39; in [22], 0.48; in data set [24], 0.72. Also, the Relative k' (first order inactivation rate relative to native rFVIII), 0.5 nM thrombin, FIXa-cofactor assay in [23] was 0.44.

B1: ADAMTS13 (VWF cleaving protease) (protein)
chain: AAGGILHLELLVAVGPDVFQAHQEDTERYVLTNLNIGAELLRDPSLGAQFRVHLVKMVILTEPEGAPNITANLTSSLLSVCGWSQTINPEDDTDPGHADLVLYITRFDLELPDGNRQVRGVTQLGGACSPTWSCLITEDTGFDLGVTIAHEIGHSFGLEHDGAPGSGCGPSGHVMASDGAAPRAGLAWSPCSRRQLLSLLSAGRARCVWDPPRPQPGSAGHPPDAQPGLYYSANEQCRVAFGPKAVACTFAREHLDMCQALSCHTDPLDQSSCSRLLVPLLDGTECGVEKWCSKGRCRSLVELTPIAAVHGRWSSWGPRSPCSRSCGGGVVTRRRQCNNPRPAFGGRACVGADLQAEMCNTQACEKTQLEFMSQQCARTDGQPLRSSPGGASFYHWGAAVPHSQGDALCRHMCRAIGESFIMKRGDSFLDGTRCMPSGPREDGTLSLCVSGSCRTFGCDGRMDSQQVWDRCQVCGGDNSTCSPRKGSFTAGRAREYVTFLTVTPNLTSVYIANHRPLFTHLAVRIGGRYVVAGKMSISPNTTYPSLLEDGRVEYRVALTEDRLPRLEEIRIWGPLQEDADIQVYRRYGEEYGNLTRPDITFTYFQPKPRQAWVWAAVRGPCSVSCGAGLRWVNYSCLDQARKELVETVQCQGSQQPPAWPEACVLEPCPPYWAVGDFGPCSASCGGGLRERPVRCVEAQGSLLKTLPPARCRAGAQQPAVALETCNPQPCPARWEVSEPSSCTSAGGAGLALENETCVPGADGLEAPVTEGPGSVDEKLPAPEPCVGMSCPPGWGHLDATSAGEKAPSPWGSIRTGAQAAHVWTPAAGSCSVSCGRGLMELRFLCMDSALRVPVQEELCGLASKPGSRREVCQAVPCPARWQYKLAACSVSCGRGVVRRILYCARAHGEDDGEEILLDTQCQGLPRPEPQEACSLEPCPPRWKVMSLGPCSASCGLGTARRSVACVQLDQGQDVEVDEAACAALVRPEASVPCLIADCTYRWHVGTWMECSVSCGDGIQRRRDTCLGPQAQAPVPADFCQHLPKPVTVRGCWAGPCVGQGTPSLVPHEEAAAPGRTTATPAGASLEWSQARGLLFSPAPQPRRLLPGPQENSVQSSACGRQHLEPTGTIDMRGPGQADCAVAIGRPLGEVVTLRVLESSLNCSAGDMLLLWGRLTWRKMCRKLLDMTFSSKTNTLVVRQRCGRPGGGVLLRYGSQLAPETFYRECDMQLFGPWGEIVSPSLSPATSNAGGCRLFINVAPHARIAIHALATNMGAGTEGANASYILIRDTHSLRTTAFHGQQVLYWESESSQAEMEFSEGFLKAQASLRGQYWTLQSWVPEMQDPQSWKGKEGT
As for B1, the “loss of VWF:CB activity after 4 h incubation with ADAMTS13 under denaturing conditions” value in data set [25], in data set [26], in data set [28] and in data set [29] was “The PEGylated conjugates showed a slightly higher susceptibility to ADAMTS13 than their parent native rVWF” each time. In addition, the “disappearance of higher molecular weight multimers after incubation with ADAMTS13” value in data set [27] is “All preparations showed similar sensitivity to ADAMTS13”.
